Measured values from patent US20140235820A1, “METHODS AND COMPOSITIONS FOR MODULATING THE Wnt PATHWAY” (Genentech, Inc., priority 2010, published 2014).
Positions of bridges follow the written chain, without caps; N, C: chain ends.

Columns and labels:
[1] = biological target: T1, sclerostin binding to LRP6 E1E2 (Homo sapiens, UniProt O75581); assay: Peptide inhibition of sclerostin binding to LRP6 E1E2 (biolayer interferometry); details: peptide 20-fold higher than IC50; ligand three-fold higher than dissociation constant
T1 construct: construct E1E2-amino acids A20-E631 of LPR6; made in house; host or cells: Tni insect cells (baculovirus, secreted)
T1 sequence (O75581 20-631): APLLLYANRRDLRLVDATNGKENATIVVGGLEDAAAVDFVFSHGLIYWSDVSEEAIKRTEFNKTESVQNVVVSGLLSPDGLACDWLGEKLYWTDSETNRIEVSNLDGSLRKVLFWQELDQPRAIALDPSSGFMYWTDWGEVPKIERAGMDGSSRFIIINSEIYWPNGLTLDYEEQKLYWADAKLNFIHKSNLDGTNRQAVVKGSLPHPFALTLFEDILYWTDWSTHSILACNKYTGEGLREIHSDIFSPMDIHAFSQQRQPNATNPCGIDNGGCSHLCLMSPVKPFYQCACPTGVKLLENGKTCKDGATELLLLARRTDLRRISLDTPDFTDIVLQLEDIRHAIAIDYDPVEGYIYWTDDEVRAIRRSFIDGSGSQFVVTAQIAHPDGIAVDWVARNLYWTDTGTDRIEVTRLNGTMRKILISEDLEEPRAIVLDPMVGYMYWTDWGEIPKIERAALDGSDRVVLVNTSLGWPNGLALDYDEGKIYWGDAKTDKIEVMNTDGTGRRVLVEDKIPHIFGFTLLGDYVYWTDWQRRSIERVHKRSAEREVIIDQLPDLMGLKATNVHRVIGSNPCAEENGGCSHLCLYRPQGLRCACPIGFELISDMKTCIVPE
Experimental: (§1) FIG. 22. […] Binding was assessed by biolayer interferometry, as described in Example 1. Immobilized LRP6 E1E2 was exposed to protein ligand (Wnt 9b, Dkk1, or sclerostin) present in solution at a concentration three-fold higher than the measured dissociation constant for E1E2. Competing peptides were added at a saturating level (20-fold higher than the measured IC50 value). Peptide A: Ac-NSNAIKN-am; Peptide B: Ac-[…]-am (disulfide); Peptide C: Ac-[…]-am (disulfide)
(§2) Binding kinetics were measured by biolayer interferometry using an Octet Red instrument (ForteBio) as previously described (11). Streptavidin (SA) biosensors were loaded with biotinylated hLRP6 in 50 mMTris, pH 8, 300 mM NaCl, 5% (v/v) glycerol, and 0.05% (w/v) Triton X-100. The loaded biosensors were washed in the same buffer before carrying out association and dissociation measurements for the indicated times. The Kd of each interaction was determined using steady state-analysis through the Octet Red software v6.3. Each reported value represents an average of three or more experiments at different concentrations, with a fitted experimental curve for which the square of the correlation coefficient (R^2) is above 0.96.
(§3) To support the conclusions from protein mutagenesis, peptides were assayed for inhibitory activity toward binding of various ligands to LRP6. Three different peptides inhibited binding of the inhibitors Dkk1 and sclerostin to LRP6 E1E2 without affecting the binding of Wnt9B (FIG. 22).

[2] = biological target: T2, Dkk1 binding to LRP6 E1E2 (Homo sapiens, UniProt O75581); assay: Peptide inhibition of Dkk1 binding to LRP6 E1E2 (biolayer interferometry); details: peptide 20-fold higher than IC50; ligand three-fold higher than dissociation constant
T2 construct: construct E1E2-amino acids A20-E631 of LPR6; made in house; host or cells: Tni insect cells (baculovirus, secreted)
T2 sequence (O75581 20-631): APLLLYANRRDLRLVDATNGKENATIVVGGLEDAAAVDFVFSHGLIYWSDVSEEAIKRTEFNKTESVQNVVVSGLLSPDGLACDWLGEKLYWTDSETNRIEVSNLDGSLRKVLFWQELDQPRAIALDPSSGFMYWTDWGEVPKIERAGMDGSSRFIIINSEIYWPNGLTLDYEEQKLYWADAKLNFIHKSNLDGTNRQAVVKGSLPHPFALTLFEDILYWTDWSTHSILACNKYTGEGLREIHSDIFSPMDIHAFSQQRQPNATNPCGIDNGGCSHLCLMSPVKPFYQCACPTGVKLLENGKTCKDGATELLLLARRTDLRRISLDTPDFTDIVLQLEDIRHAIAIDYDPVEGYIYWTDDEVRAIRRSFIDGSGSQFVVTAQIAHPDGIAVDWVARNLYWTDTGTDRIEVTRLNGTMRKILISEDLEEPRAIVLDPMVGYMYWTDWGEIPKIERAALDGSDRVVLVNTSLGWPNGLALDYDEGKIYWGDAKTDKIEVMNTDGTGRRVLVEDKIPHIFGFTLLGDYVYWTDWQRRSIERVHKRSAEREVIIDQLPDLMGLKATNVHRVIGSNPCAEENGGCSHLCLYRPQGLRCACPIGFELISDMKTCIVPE
Experimental: as §1, §2, §3

With “Ac-GSLCSNRIKPDTHCSS-am (disulfide) (Ac-GSLCSNRIKPDTHCSS-NH2; disulfide 4-14 (inferred)) [Peptide C]” the “inhibition of sclerostin binding to LRP6 E1E2” value [1] was “inhibit binding” and the “inhibition of Dkk1 binding to LRP6 E1E2” value [2] was “inhibit binding”.
